The values below come from article PMC5402964.

By Kd is commonly meant the free concentration of one partner at which half of the binding sites on the other are occupied at equilibrium, for simple one-to-one binding.

In the experiment the target is α5β1 integrin (UniProt P08648). Nature of the experiment: SPR. A general note: SPR reads the build-up and loss of mass on a sensor chip optically.

Take “DisBa-01 (disintegrin of Bothrops alternatus), recombinant His-tag protein (natural protein; other documents disagree on this pair)”: the Kd came out at 76.2 µM.
